Molecular target: SARS-CoV-2 spike protein receptor binding domain (RBD) (SARS-CoV-2, UniProt P0DTC2 319-541)
Test: SPR

B1: bACE2-Rm (H41-Q42) mutant, mouse Fc tagged (Fc fusion)
chain: STTEDEAKKFLDKFNSKAEDLSHQSSLASWDYNTNISDENVQKMDEAGAKWSAFYEEQSKLAKNYPLEEIQNDTVKRQLQILQQSGSPVLSEDKSKRLNSILNAMSTIYSTGKVCKPNNPQECLLLEPGLDNIMGTSKDYNERLWAWEGWRAEVGKQLRPLYEEYVVLKNEMARGYHYEDYGDYWRRDYETEESSGPGYSRDQLMKDVDRIFTEIKPLYEHLHAYVRAKLMDTYPLHISPTGCLPAHLLGDMWGRFWTNLYPLTVPFGQKPNIDVTDAMLNQGWDANRIFKEAEKFFVSVSLPKMTEGFWNKSMLTEPGDGRKVVCHPTAWDLGKGDFRIKMCTKVTMEDFLTAHHEMGHIQYDMAYASQPYLLRNGANEGFHEAVGEVMSLSVATPKHLKTMGLLSPDFREDDETEINFLLKQALNIVGTLPFTYMLEKWRWMVFKGEIPKEEWMKKWWEMKREIVGVVEPVPHDETYCDPASLFHVANDYSFIRYYTRTIFEFQFHEALCRIAQHNGPLHKCDISNSTDAGKKLHQMLSVGKSQAWTKTLEDIVDSRNMDVGPLLRYFKPLYTWLQEQNRKSYVGWNTDWSPYAD
Q: Which Kd does the source give for B1 here?
A: 2220 nM

B2: bACE2-Rm (Y41-Q42) mutant, mouse Fc tagged (Fc fusion)
chain: STTEDEAKKFLDKFNSKAEDLSYQSSLASWDYNTNISDENVQKMDEAGAKWSAFYEEQSKLAKNYPLEEIQNDTVKRQLQILQQSGSPVLSEDKSKRLNSILNAMSTIYSTGKVCKPNNPQECLLLEPGLDNIMGTSKDYNERLWAWEGWRAEVGKQLRPLYEEYVVLKNEMARGYHYEDYGDYWRRDYETEESSGPGYSRDQLMKDVDRIFTEIKPLYEHLHAYVRAKLMDTYPLHISPTGCLPAHLLGDMWGRFWTNLYPLTVPFGQKPNIDVTDAMLNQGWDANRIFKEAEKFFVSVSLPKMTEGFWNKSMLTEPGDGRKVVCHPTAWDLGKGDFRIKMCTKVTMEDFLTAHHEMGHIQYDMAYASQPYLLRNGANEGFHEAVGEVMSLSVATPKHLKTMGLLSPDFREDDETEINFLLKQALNIVGTLPFTYMLEKWRWMVFKGEIPKEEWMKKWWEMKREIVGVVEPVPHDETYCDPASLFHVANDYSFIRYYTRTIFEFQFHEALCRIAQHNGPLHKCDISNSTDAGKKLHQMLSVGKSQAWTKTLEDIVDSRNMDVGPLLRYFKPLYTWLQEQNRKSYVGWNTDWSPYAD
Q: For B2, which Kd is on record?
A: 250 nM
